Assay results published in patent US20210221899A1 (published 2021).
Substitutions are numbered along the chain they refer to.

T1: human NGF (human, UniProt P01138 122-241)
T1 construct: also called human Nerve Growth Factor; hN
T1 chain: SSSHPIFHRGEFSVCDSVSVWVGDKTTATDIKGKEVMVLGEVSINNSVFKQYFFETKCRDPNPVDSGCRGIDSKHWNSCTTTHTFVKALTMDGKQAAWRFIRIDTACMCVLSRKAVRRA

T2: canine NGF (canine, UniProt Q29074 110-229 (pig entry), limits assumed)
T2 construct: The protein was secreted from CHO cells and purified; also called cNGF; canine β-NGF
T2 chain: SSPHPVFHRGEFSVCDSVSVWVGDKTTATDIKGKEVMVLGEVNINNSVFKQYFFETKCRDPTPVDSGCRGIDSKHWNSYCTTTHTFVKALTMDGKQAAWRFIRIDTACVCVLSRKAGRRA

B1: can9L12VH_E99A (antibody, V domains shown)
VH: EVQLVESGGDLVKPGGSLRLSCVASGFTFSSHGMHWVRQSPGKGLQWVAVINSGGSSTYYTDAVKGRFTISRDNAKNTVYLQMNSLRAEDTAMYYCAKASVGGWEQLVGPHFDYWGQGTLVIVSS
VL: QSVLTQPTSVSGSLGQRVTISCSGSTNNIGILGASWYQLFPGKAPKLLVYGNGNRPSGVPDRFSGADSGDSVTLTITGLQAEDEADYYCQSFDTTLGAHVFGGGTHLTVL
B2: can9L12VH_G26A (antibody, V domains shown)
VH: B1 VH with G26A, A99E
VL: B1 VL
B3: can9L12VH_H111A (antibody, V domains shown)
VH: B1 VH with A99E, H111A
VL: B1 VL
B4: can9L12VH_S57A (antibody, V domains shown)
VH: B1 VH with S57A, A99E
VL: B1 VL
B5: can9L12VH_H32A (antibody, V domains shown)
VH: B1 VH with H32A, A99E
VL: B1 VL
B6: can9L12VH_F27A (antibody, V domains shown)
VH: B1 VH with F27A, A99E
VL: B1 VL
B7: can9L12VH_G33A (antibody, V domains shown)
VH: B1 VH with G33A, A99E
VL: B1 VL
B8: can9L12VH_S53A (antibody, V domains shown)
VH: B1 VH with S53A, A99E
VL: B1 VL
B9: can9L12VH_G55A (antibody, V domains shown)
VH: B1 VH with G55A, A99E
VL: B1 VL
B10: can9L12VH_L107A (antibody, V domains shown)
VH: B1 VH with A99E, L107A
VL: B1 VL
B11: can9L12VH_P110A (antibody, V domains shown)
VH: B1 VH with A99E, P110A
VL: B1 VL
B12: can9L12VH_N52A (antibody, V domains shown)
VH: B1 VH with N52A, A99E
VL: B1 VL
B13: can9L12VH_G102A (antibody, V domains shown)
VH: B1 VH with A99E, G102A
VL: B1 VL
B14: can9L12VH_F29A (antibody, V domains shown)
VH: B1 VH with F29A, A99E
VL: B1 VL
B15: can9L12VH_F112A (antibody, V domains shown)
VH: B1 VH with A99E, F112A
VL: B1 VL
B16: can9L12VH_Q106A (antibody, V domains shown)
VH: B1 VH with A99E, Q106A
VL: B1 VL
B17: can9L12VH_S31A (antibody, V domains shown)
VH: B1 VH with S31A, A99E
VL: B1 VL
B18: can9L12VH_E105A (antibody, V domains shown)
VH: B1 VH with A99E, E105A
VL: B1 VL
B19: can9L12VH_S30A (antibody, V domains shown)
VH: B1 VH with S30A, A99E
VL: B1 VL
B20: can9L12VH_G54A (antibody, V domains shown)
VH: B1 VH with G54A, A99E
VL: B1 VL
B21: can9L12VH_K98A (antibody, V domains shown)
VH: B1 VH with K98A, A99E
VL: B1 VL
B22: can9L12VH_G103A (antibody, V domains shown)
VH: B1 VH with A99E, G103A
VL: B1 VL
B23: can9L12VH_S56A (antibody, V domains shown)
VH: B1 VH with S56A, A99E
VL: B1 VL
B24: can9L12VH_S100A (antibody, V domains shown)
VH: B1 VH with A99E, S100A
VL: B1 VL
B25: can9L12VH_G109A (antibody, V domains shown)
VH: B1 VH with A99E, G109A
VL: B1 VL

Molecular target: T3, rat NGF (rat, UniProt P25427 122-241)
T3 construct: also called rN
Assay: SPR (Biacore T200), 100 nM mAb on NGF chip, similarity to parent mAb
From the text: (§1) The region of an antibody responsible for antigen recognition represents the paratope. A paratope is created by a combination of amino acids in the complementarity determining regions (CDRs) of both the heavy and light chain variable regions. The binding between antibody and antigen is often mediated by side chains of CDR residues with side chains or carbohydrate moieties of the antigen. To help define critical side chains involved in antibody recognition alanine scanning mutagenesis was performed on each CDR residue in both the heavy and light chain, the technique as described by Cunningham and Wells (1989) Science, Vol. 244, Issue 4908, pp. 1081-1085. These mutants were then individually tested for the ability to NGF using the Biacore. […] Values were then compared to the wild type antibodies and are represented in the tables as a percent of wild type binding. The data presented in Tables 4 and 5 below are shown as a “percent similarity score” compared to wild type.
(§2) The mean response unit of four replicates of the parent mAb+/−3 standard deviations was used to generate parameters to define a threshold of response units comprising both the on- and off-rates antibody binding. The percentage of data points for each mutant fell within this threshold was then used to define a “% similarity score”. […] Results from substitution of alanine at each CDR position

T3 sequence (P25427 122-241 limits assumed): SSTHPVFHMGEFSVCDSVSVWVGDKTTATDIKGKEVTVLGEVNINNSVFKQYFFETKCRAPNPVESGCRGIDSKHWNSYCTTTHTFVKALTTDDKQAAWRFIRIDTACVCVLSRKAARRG

First: B1
Second: B2
The “Percent Similarity Score (KD on rN)” value of the first is lower: 80.5% for the first, 94.8% for the second.

First: B3
Second: B4
The “Percent Similarity Score (KD on rN)” value of the first is lower: 3.25% for the first, 100% for the second.

Going from B5 to B6, the “Percent Similarity Score (KD on rN)” value rises from 51.5% to 100%.

B7 and B8 are the same in “Percent Similarity Score (KD on rN)” value: 99.9% for the first, 99.9% for the second.

Compared with B9, B10 is lower in “Percent Similarity Score (KD on rN)” value: 99.3% for the first, 2% for the second.

First: B11
Second: B12
The “Percent Similarity Score (KD on rN)” value of the first is lower: 2.6% for the first, 19.7% for the second.

Going from B13 to B14, the “Percent Similarity Score (KD on rN)” value rises from 4.7% to 99.9%.

Going from B15 to B16, the “Percent Similarity Score (KD on rN)” value rises from 11.8% to 99.9%.

B17 and B18 are the same in “Percent Similarity Score (KD on rN)” value: 100% for the first, 100% for the second.

Going from B19 to B20, the “Percent Similarity Score (KD on rN)” value falls from 99.9% to 93.8%.

Going from B21 to B22, the “Percent Similarity Score (KD on rN)” value rises from 7.92% to 62.5%.

Going from B23 to B24, the “Percent Similarity Score (KD on rN)” value falls from 96% to 51.6%.

For B25, the “Percent Similarity Score (KD on rN)” value was 62%.

Molecular target: T1, human NGF
Assay: as above
From the text: as §1, §2

Compared with B1, B2 is higher in “Percent Similarity Score (KD on hN)” value: 82% for the first, 97.4% for the second.

First: B3
Second: B4
The “Percent Similarity Score (KD on hN)” value of the first is lower: 2.79% for the first, 33.4% for the second.

Going from B5 to B6, the “Percent Similarity Score (KD on hN)” value rises from 13.8% to 100%.

B7 and B8 are the same in “Percent Similarity Score (KD on hN)” value: 100% for the first, 100% for the second.

First: B9
Second: B10
The “Percent Similarity Score (KD on hN)” value of the first is higher: 100% for the first, 1.82% for the second.

Going from B11 to B12, the “Percent Similarity Score (KD on hN)” value rises from 2.1% to 38.2%.

Going from B13 to B14, the “Percent Similarity Score (KD on hN)” value rises from 3.4% to 100%.

First: B15
Second: B16
The “Percent Similarity Score (KD on hN)” value of the first is lower: 8% for the first, 100% for the second.

Going from B17 to B18, the “Percent Similarity Score (KD on hN)” value falls from 99.9% to 98.4%.

Compared with B19, B20 is higher in “Percent Similarity Score (KD on hN)” value: 31.2% for the first, 96.2% for the second.

Compared with B21, B22 is higher in “Percent Similarity Score (KD on hN)” value: 8.58% for the first, 38.2% for the second.

Compared with B23, B24 is higher in “Percent Similarity Score (KD on hN)” value: 40.5% for the first, 42.1% for the second.

For B25, the “Percent Similarity Score (KD on hN)” value was 40%.

Molecular target: T2, canine NGF
Assay: as above
From the text: as §1, §2

Compared with B1, B2 is higher in “Percent Similarity Score (KD on cN)” value: 97.7% for the first, 100% for the second.

First: B3
Second: B4
The “Percent Similarity Score (KD on cN)” value of the first is lower: 10.1% for the first, 89.9% for the second.

Going from B5 to B6, the “Percent Similarity Score (KD on cN)” value rises from 38.2% to 100%.

B7 and B8 are the same in “Percent Similarity Score (KD on cN)” value: 100% for the first, 100% for the second.

Compared with B9, B10 is lower in “Percent Similarity Score (KD on cN)” value: 100% for the first, 5.45% for the second.

First: B11
Second: B12
The “Percent Similarity Score (KD on cN)” value of the first is lower: 6.48% for the first, 85.8% for the second.

Compared with B13, B14 is higher in “Percent Similarity Score (KD on cN)” value: 11% for the first, 100% for the second.

Going from B15 to B16, the “Percent Similarity Score (KD on cN)” value rises from 28.3% to 100%.

B17 and B18 are the same in “Percent Similarity Score (KD on cN)” value: 100% for the first, 100% for the second.

Going from B19 to B20, the “Percent Similarity Score (KD on cN)” value rises from 94.7% to 100%.

Compared with B21, B22 is higher in “Percent Similarity Score (KD on cN)” value: 22.8% for the first, 99.8% for the second.

Compared with B23, B24 is lower in “Percent Similarity Score (KD on cN)” value: 96.8% for the first, 76.2% for the second.

In the case of B25, the “Percent Similarity Score (KD on cN)” value is reported as 100%.
